Assay results taken from PMC9930398, “SlMYB1 regulates the accumulation of lycopene, fruit shape, and resistance to Botrytis cinerea in tomato”.

B1: SlLCY1pro probe (dsDNA)
DNA 1: ACCGTTCACCGTTCACCGTTC
DNA 2: GAACGGTGAACGGTGAACGGT
B2: SlPSY2pro probe (dsDNA)
DNA 1: TCGGTTATCGGTTATCGGTTA
DNA 2: TAACCGATAACCGATAACCGA
B3: SlPR5pro probe (dsDNA)
DNA 1: TCCGTTCTCCGTTCTCCGTTC
DNA 2: GAACGGAGAACGGAGAACGGA

Each binder was assayed against SlMYB1-GST (Solanum lycopersicum, UniProt A0A3Q7I0H7 1-380) (assay: EMSA; EMSA/Gel-Shift kit (Biyuntian/Beyotime) per instructions; buffer, salt, pH and temperature not stated). Conditions: protein: recombinant; tags: GST (pGEX-4T-1, N-terminal by vector); label: biotin; blunt.
Sequence of SlMYB1-GST (A0A3Q7I0H7 entry or part of it): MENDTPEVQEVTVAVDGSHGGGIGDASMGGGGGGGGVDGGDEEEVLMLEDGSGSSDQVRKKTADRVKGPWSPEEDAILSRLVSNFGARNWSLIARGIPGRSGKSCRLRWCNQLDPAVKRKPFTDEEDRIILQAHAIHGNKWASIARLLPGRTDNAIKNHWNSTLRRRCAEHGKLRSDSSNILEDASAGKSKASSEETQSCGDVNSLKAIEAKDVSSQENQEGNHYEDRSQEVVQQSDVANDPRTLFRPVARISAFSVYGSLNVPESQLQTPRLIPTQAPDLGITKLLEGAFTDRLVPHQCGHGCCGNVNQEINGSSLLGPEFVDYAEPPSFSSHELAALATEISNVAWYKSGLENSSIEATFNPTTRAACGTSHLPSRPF

Binding result, binds:
B1, B2, B3
